Laboratory results published in the supplement of paper PMC10567573.

B1: KRT33B (parent)
chain: YQSYFKTIEELQQKILCSKSENAR
B2: OAS1 (parent)
chain: YIGTHEYPHFSHRPSTLQAASTPQ

Variants of: B1
Assay: protein stability index of a GFP-peptide fusion (GPS, HEK-293T) (PSI 1-6); higher = more stable
Conditions: c terminus: a fixed tail appended
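Further: lentivirally expressed fusions sorted by FACS into six bins by GFP to DsRed ratio, PSI derived from sequencing read proportions per bin multiplied by bin number.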

Variant | protein stability index
YQSYFKTIEELQQKILCSKSEWAR | 1.9
YQSYFKTIEELQQKILCSKSEYAR | 1.86
YQSYFKTIEELQQKILCSKSETAR | 1.39
YQSYFKTIEELQQKILCSKSEVAR | 1.89
YQSYFKTIEELQQKILCSKSENAT | 1.76
YQSYFKTIEELQQKILCSKSENAM | 1.92
YQSYFKTIEELQQKILCSKSENAS | 2.07
YQSYFKTIEELQQKILCSKSENAA | 1.94
YQSYFKTIEELQQKILCSKSENAN | 2.02
YQSYFKTIEELQQKILCSKSENAP | 2.13
YQSYFKTIEELQQKILCSKSENAH | 1.71
YQSYFKTIEELQQKILCSKSENAE | 1.88
YQSYFKTIEELQQKILCSKSENAV | 1.98
YQSYFKTIEELQQKILCSKSENAC | 2.4
YQSYFKTIEELQQKILCSKSENAF | 1.47
YQSYFKTIEELQQKILCSKSENAQ | 2.34
YQSYFKTIEELQQKILCSKSENAL | 2.15
YQSYFKTIEELQQKILCSKSENAI | 1.79
YQSYFKTIEELQQKILCSKSENAW | 1.15
YQSYFKTIEELQQKILCSKSENAD | 1.78
YQSYFKTIEELQQKILCSKSENAY | 1.3

Variant | protein stability index
YQSYFKTIEELQQKILCSKSENAG | 2.55
YQSYFKTIEELQQKILCSKSENAK | 1.84
YQSYFKTIEELQQKILCSKSENQR | 2.36
YQSYFKTIEELQQKILCSKSENNR | 2.24
YQSYFKTIEELQQKILCSKSENGR | 2.03
YQSYFKTIEELQQKILCSKSENVR | 2.35
YQSYFKTIEELQQKILCSKSENDR | 1.62
YQSYFKTIEELQQKILCSKSENTR | 2.27
YQSYFKTIEELQQKILCSKSENER | 2.77
YQSYFKTIEELQQKILCSKSENFR | 1.47
YQSYFKTIEELQQKILCSKSENKR | 1.76
YQSYFKTIEELQQKILCSKSENWR | 1.57
YQSYFKTIEELQQKILCSKSENYR | 1.64
YQSYFKTIEELQQKILCSKSENPR | 1.68
YQSYFKTIEELQQKILCSKSENRR | 2.13
YQSYFKTIEELQQKILCSKSENCR | 1.86
YQSYFKTIEELQQKILCSKSENLR | 1.73
YQSYFKTIEELQQKILCSKSENSR | 2.21
YQSYFKTIEELQQKILCSKSENMR | 2.11
YQSYFKTIEELQQKILCSKSENHR | 1.68
YQSYFKTIEELQQKILCSKSENIR | 1.9

Variants of: B2
Assay: as above
Conditions: c terminus: a fixed tail appended

Variant | protein stability index
YIGTHERPHFSHRPSTLQAASTPQ | 2.12
YIGTHEHPHFSHRPSTLQAASTPQ | 2.18
YIGTHEDPHFSHRPSTLQAASTPQ | 3.16
YIGTHEIPHFSHRPSTLQAASTPQ | 2.44
YIGTHEKPHFSHRPSTLQAASTPQ | 3.34
YIGTHELPHFSHRPSTLQAASTPQ | 2.06
YIGTHEQPHFSHRPSTLQAASTPQ | 2.65
YIGTHEEPHFSHRPSTLQAASTPQ | 3.16
YIGTHECPHFSHRPSTLQAASTPQ | 2.49
YIGTHENPHFSHRPSTLQAASTPQ | 2.15
YIGTHEGPHFSHRPSTLQAASTPQ | 1.98
YIGTHEAPHFSHRPSTLQAASTPQ | 2.23
YIGTHEMPHFSHRPSTLQAASTPQ | 2.37
YIGTHEFPHFSHRPSTLQAASTPQ | 1.68
YIGTHETPHFSHRPSTLQAASTPQ | 2.3
YIGTHESPHFSHRPSTLQAASTPQ | 2.55
YIGTHEVPHFSHRPSTLQAASTPQ | 2.12
SIGTHEYPHFSHRPSTLQAASTPQ | 4
GIGTHEYPHFSHRPSTLQAASTPQ | 4.34
LIGTHEYPHFSHRPSTLQAASTPQ | 3.54
DIGTHEYPHFSHRPSTLQAASTPQ | 4.09
WIGTHEYPHFSHRPSTLQAASTPQ | 2.73
PIGTHEYPHFSHRPSTLQAASTPQ | 4.32
VIGTHEYPHFSHRPSTLQAASTPQ | 3.64
QIGTHEYPHFSHRPSTLQAASTPQ | 4.21

Variant | protein stability index
RIGTHEYPHFSHRPSTLQAASTPQ | 3.84
FIGTHEYPHFSHRPSTLQAASTPQ | 1.49
KIGTHEYPHFSHRPSTLQAASTPQ | 3.52
MIGTHEYPHFSHRPSTLQAASTPQ | 3.66
EIGTHEYPHFSHRPSTLQAASTPQ | 4.08
IIGTHEYPHFSHRPSTLQAASTPQ | 3.58
HIGTHEYPHFSHRPSTLQAASTPQ | 3.64
NIGTHEYPHFSHRPSTLQAASTPQ | 4.04
CIGTHEYPHFSHRPSTLQAASTPQ | 3.33
TIGTHEYPHFSHRPSTLQAASTPQ | 4.07
AIGTHEYPHFSHRPSTLQAASTPQ | 4.01
YNGTHEYPHFSHRPSTLQAASTPQ | 3.29
YGGTHEYPHFSHRPSTLQAASTPQ | 3.15
YMGTHEYPHFSHRPSTLQAASTPQ | 2.92
YAGTHEYPHFSHRPSTLQAASTPQ | 2.29
YPGTHEYPHFSHRPSTLQAASTPQ | 2.47
YQGTHEYPHFSHRPSTLQAASTPQ | 2.59
YTGTHEYPHFSHRPSTLQAASTPQ | 2.17
YVGTHEYPHFSHRPSTLQAASTPQ | 2.61
YHGTHEYPHFSHRPSTLQAASTPQ | 1.44
YWGTHEYPHFSHRPSTLQAASTPQ | 2.66
YCGTHEYPHFSHRPSTLQAASTPQ | 1.87
YRGTHEYPHFSHRPSTLQAASTPQ | 3.68
YLGTHEYPHFSHRPSTLQAASTPQ | 2.73
YYGTHEYPHFSHRPSTLQAASTPQ | 3.27

Variant | protein stability index
YSGTHEYPHFSHRPSTLQAASTPQ | 2.49
YFGTHEYPHFSHRPSTLQAASTPQ | 2.67
YDGTHEYPHFSHRPSTLQAASTPQ | 3.48
YKGTHEYPHFSHRPSTLQAASTPQ | 3.47
YEGTHEYPHFSHRPSTLQAASTPQ | 4.18
YIGTHSYPHFSHRPSTLQAASTPQ | 1.79
YIGTHTYPHFSHRPSTLQAASTPQ | 2.14
YIGTHWYPHFSHRPSTLQAASTPQ | 3.29
YIGTHFYPHFSHRPSTLQAASTPQ | 3.8
YIGTHNYPHFSHRPSTLQAASTPQ | 2.18
YIGTHQYPHFSHRPSTLQAASTPQ | 1.68
YIGTHCYPHFSHRPSTLQAASTPQ | 2.26
YIGTHKYPHFSHRPSTLQAASTPQ | 2.06
YIGTHPYPHFSHRPSTLQAASTPQ | 1.5
YIGTHVYPHFSHRPSTLQAASTPQ | 1.88
YIGTHHYPHFSHRPSTLQAASTPQ | 2.32
YIGTHGYPHFSHRPSTLQAASTPQ | 1.81
YIGTHAYPHFSHRPSTLQAASTPQ | 2
YIGTHMYPHFSHRPSTLQAASTPQ | 1.46
YIGTHIYPHFSHRPSTLQAASTPQ | 1.75
YIGTHYYPHFSHRPSTLQAASTPQ | 1.89
YIGTHLYPHFSHRPSTLQAASTPQ | 2.99
YIGTHDYPHFSHRPSTLQAASTPQ | 1.92
YIGTHRYPHFSHRPSTLQAASTPQ | 1.61
YIGTNEYPHFSHRPSTLQAASTPQ | 2.03

Variant | protein stability index
YIGTMEYPHFSHRPSTLQAASTPQ | 2.14
YIGTYEYPHFSHRPSTLQAASTPQ | 1.83
YIGTQEYPHFSHRPSTLQAASTPQ | 2.38
YIGTPEYPHFSHRPSTLQAASTPQ | 2.45
YIGTFEYPHFSHRPSTLQAASTPQ | 2.28
YIGTAEYPHFSHRPSTLQAASTPQ | 1.72
YIGTEEYPHFSHRPSTLQAASTPQ | 2.53
YIGTREYPHFSHRPSTLQAASTPQ | 2.35
YIGTCEYPHFSHRPSTLQAASTPQ | 1.75
YIGTTEYPHFSHRPSTLQAASTPQ | 2.3
YIGTIEYPHFSHRPSTLQAASTPQ | 1.93
YIGTLEYPHFSHRPSTLQAASTPQ | 2.12
YIGTWEYPHFSHRPSTLQAASTPQ | 2.29
YIGTKEYPHFSHRPSTLQAASTPQ | 2.47
YIGTVEYPHFSHRPSTLQAASTPQ | 2.23
YIGTDEYPHFSHRPSTLQAASTPQ | 2.52
YIGTGEYPHFSHRPSTLQAASTPQ | 2.09
YIGTSEYPHFSHRPSTLQAASTPQ | 1.94
YIGMHEYPHFSHRPSTLQAASTPQ | 2.15
YIGEHEYPHFSHRPSTLQAASTPQ | 2.55
YIGDHEYPHFSHRPSTLQAASTPQ | 2.56
YIGGHEYPHFSHRPSTLQAASTPQ | 2.27
YIGFHEYPHFSHRPSTLQAASTPQ | 2.11
YIGVHEYPHFSHRPSTLQAASTPQ | 1.76
YIGLHEYPHFSHRPSTLQAASTPQ | 1.81

Variant | protein stability index
YIGKHEYPHFSHRPSTLQAASTPQ | 2.15
YIGSHEYPHFSHRPSTLQAASTPQ | 1.89
YIGPHEYPHFSHRPSTLQAASTPQ | 2.34
YIGNHEYPHFSHRPSTLQAASTPQ | 2.2
YIGHHEYPHFSHRPSTLQAASTPQ | 1.95
YIGYHEYPHFSHRPSTLQAASTPQ | 1.84
YIGQHEYPHFSHRPSTLQAASTPQ | 1.89
YIGWHEYPHFSHRPSTLQAASTPQ | 2.89
YIGIHEYPHFSHRPSTLQAASTPQ | 1.84
YIGCHEYPHFSHRPSTLQAASTPQ | 2.12
YIGAHEYPHFSHRPSTLQAASTPQ | 1.86
YIGRHEYPHFSHRPSTLQAASTPQ | 1.7
YIGTHEYHHFSHRPSTLQAASTPQ | 2.45
YIGTHEYRHFSHRPSTLQAASTPQ | 1.63
YIGTHEYAHFSHRPSTLQAASTPQ | 1.74
YIGTHEYQHFSHRPSTLQAASTPQ | 1.95
YIGTHEYMHFSHRPSTLQAASTPQ | 1.91
YIGTHEYNHFSHRPSTLQAASTPQ | 2.05
YIGTHEYFHFSHRPSTLQAASTPQ | 2.44
YIGTHEYLHFSHRPSTLQAASTPQ | 1.91
YIGTHEYGHFSHRPSTLQAASTPQ | 1.39
YIGTHEYEHFSHRPSTLQAASTPQ | 2.79
YIGTHEYSHFSHRPSTLQAASTPQ | 1.95
YIGTHEYIHFSHRPSTLQAASTPQ | 2.02
YIGTHEYDHFSHRPSTLQAASTPQ | 2.35

Variant | protein stability index
YIGTHEYKHFSHRPSTLQAASTPQ | 2.08
YIGTHEYCHFSHRPSTLQAASTPQ | 2.12
YIETHEYPHFSHRPSTLQAASTPQ | 1.8
YIRTHEYPHFSHRPSTLQAASTPQ | 2.07
YIFTHEYPHFSHRPSTLQAASTPQ | 2.35
YIVTHEYPHFSHRPSTLQAASTPQ | 1.95
YIPTHEYPHFSHRPSTLQAASTPQ | 2.28
YILTHEYPHFSHRPSTLQAASTPQ | 2.19
YIITHEYPHFSHRPSTLQAASTPQ | 2.6
YIATHEYPHFSHRPSTLQAASTPQ | 2.11
YIMTHEYPHFSHRPSTLQAASTPQ | 1.86
YIHTHEYPHFSHRPSTLQAASTPQ | 1.89
YINTHEYPHFSHRPSTLQAASTPQ | 2.3
YIDTHEYPHFSHRPSTLQAASTPQ | 1.75
YIKTHEYPHFSHRPSTLQAASTPQ | 2.48
YIQTHEYPHFSHRPSTLQAASTPQ | 2.32
YIYTHEYPHFSHRPSTLQAASTPQ | 1.6
YIWTHEYPHFSHRPSTLQAASTPQ | 1.83
YISTHEYPHFSHRPSTLQAASTPQ | 2.03
YITTHEYPHFSHRPSTLQAASTPQ | 2.29
YICTHEYPHFSHRPSTLQAASTPQ | 1.97
